Experimental data taken from US20250257133A1 (ADAGENE PTE, published 2025).
Substitutions are numbered along the chain they refer to. In names and notes the source's numbering stands.

B1: TY28655 (bispecific antibody, human IgG1, kappa, N297A)
light: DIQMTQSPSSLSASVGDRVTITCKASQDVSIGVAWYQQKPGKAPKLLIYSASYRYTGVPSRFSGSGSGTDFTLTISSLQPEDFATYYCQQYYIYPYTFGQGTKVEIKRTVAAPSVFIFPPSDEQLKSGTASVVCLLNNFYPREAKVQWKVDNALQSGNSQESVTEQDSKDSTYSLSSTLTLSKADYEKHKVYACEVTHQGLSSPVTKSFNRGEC
heavy: EVQLVESGGGLVQPGGSLRLSCAASGFTFTDYTMDWVRQAPGKGLEWVADVNPNSGGSIYNQRFKGRFTLSVDRSKNTLYLQMNSLRAEDTAVYYCARNLGPSFYFDYWGQGTLVTVSSASTKGPSVFPLAPSSKSTSGGTAALGCLVKDYFPEPVTVSWNSGALTSGVHTFPAVLQSSGLYSLSSVVTVPSSSLGTQTYICNVNHKPSNTKVDKKVEPKSCDKTHTCPPCPAPELLGGPSVFLFPPKPKDTLMISRTPEVTCVVVDVSHEDPEVKFNWYVDGVEVHNAKTKPREEQYASTYRVVSVLTVLHQDWLNGKEYKCKVSNKALPAPIEKTISKAKGQPREPQVYTLPPSRKKLTKNQVKLTCLVKGFYPSDIAVEWESNGQPENNYKTTPPVLDCDGSFFLYSKLTVDKSRWQQGNVFSCSVMHEALHNHYTQKSLSLSPGK
chain: DIQLTQSPSSLSASVGDRVTITCRASQSVDFYGISFLHWYQQKPGKAPKLLIYAASSLQSGVPSRFSGSGSGTDFTLTISSLQPEDFATYYCQQSYRTPRTFGQGTKVEIKGGGGSGGGGSGGGGSGGGGSEVQLVESGGGLVQPGGSLRLSCAASGFSLSTSGVGVSWIRQAPGKGLEWIGSIYHSGSTYYNPSLKSRVTISRDNSKNTLYLQLNSLRAEDTAVYYCARYEYDYYAFDYWGQGTLVTVSSEPKSSDKTHTCPPCPAPELLGGPSVFLFPPKPKDTLMISRTPEVTCVVVDVSHEDPEVKFNWYVDGVEVHNAKTKPREEQYASTYRVVSVLTVLHQDWLNGKEYKCKVSNKALPAPIEKTISKAKGQPREPQVYTDPPSRDELTKNQVSLTCLVDGFYPSDIAVEWESNGQPENCYKTTPPVLDSDGSFFLYSKLTVDKSRWQQGNVFSCSVMHEALHNHYTQDSLSLSPGK
notes: anti-HER2 Fab x CD28 scFv BC8233 (VL-VH)-Fc
B2: TY29109 (bispecific antibody, human IgG1, kappa, N297A)
light: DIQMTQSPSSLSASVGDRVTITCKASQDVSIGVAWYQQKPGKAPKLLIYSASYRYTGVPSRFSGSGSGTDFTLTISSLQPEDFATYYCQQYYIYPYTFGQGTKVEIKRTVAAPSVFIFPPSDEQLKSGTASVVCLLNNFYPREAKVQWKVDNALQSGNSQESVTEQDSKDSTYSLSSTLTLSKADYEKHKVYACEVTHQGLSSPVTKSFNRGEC
heavy: B1 heavy
chain: EVQLVESGGGLVQPGGSLRLSCAASGFSLSTGGVGVSWIRQAPGKGLEWIGEIYHSGSTYYSPSLKSRVTISRDNSKNTLYLQLNSLRAEDTAVYYCARYEYYYYDFDYWGQGTLVTVSSGGGGSGGGGSGGGGSGGGGSDIQLTQSPSSLSASVGDRVTITCRASQSVDFHGISFLHWYQQKPGKAPKLLIYAASSLQSGVPSRFSGSGSGTDFTLTISSLQPEDFATYYCQQSYRSPRTFGQGTKVEIKEPKSSDKTHTCPPCPAPELLGGPSVFLFPPKPKDTLMISRTPEVTCVVVDVSHEDPEVKFNWYVDGVEVHNAKTKPREEQYASTYRVVSVLTVLHQDWLNGKEYKCKVSNKALPAPIEKTISKAKGQPREPQVYTDPPSRDELTKNQVSLTCLVDGFYPSDIAVEWESNGQPENCYKTTPPVLDSDGSFFLYSKLTVDKSRWQQGNVFSCSVMHEALHNHYTQDSLSLSPGK
notes: anti-HER2 Fab x CD28 scFv WT (VH-VL)-Fc; also called TY29109 (WT)
B3: TY28657 (bispecific antibody, human IgG1, kappa, N297A)
light: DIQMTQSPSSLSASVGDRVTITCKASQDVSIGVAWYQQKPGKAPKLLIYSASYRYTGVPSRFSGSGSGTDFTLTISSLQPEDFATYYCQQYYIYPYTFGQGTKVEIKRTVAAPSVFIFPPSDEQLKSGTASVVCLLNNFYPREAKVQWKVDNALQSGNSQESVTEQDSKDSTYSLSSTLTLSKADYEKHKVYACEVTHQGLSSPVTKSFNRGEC
heavy: B1 heavy
chain: B1 chain with Y32H, Q59E, S163G, S168G, S183E, D234G
notes: anti-HER2 Fab x CD28 scFv BC8237 (VL-VH)-Fc
B4: TY29310 (bispecific antibody, human IgG1, kappa, N297A)
light: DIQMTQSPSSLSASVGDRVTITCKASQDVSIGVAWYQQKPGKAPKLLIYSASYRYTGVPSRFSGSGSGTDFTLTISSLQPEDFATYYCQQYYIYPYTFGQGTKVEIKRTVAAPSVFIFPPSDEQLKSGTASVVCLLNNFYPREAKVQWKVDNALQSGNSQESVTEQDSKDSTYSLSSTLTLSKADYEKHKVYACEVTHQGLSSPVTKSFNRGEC
heavy: B1 heavy
chain: B2 chain with G32S, S37G, Y60N, S62N, Y103G, D106A, F107L, H172Y, I174K, S238T
notes: anti-HER2 Fab x CD28 scFv BC8235 (VH-VL)-Fc
B5: TY29309 (bispecific antibody, human IgG1, kappa, N297A)
light: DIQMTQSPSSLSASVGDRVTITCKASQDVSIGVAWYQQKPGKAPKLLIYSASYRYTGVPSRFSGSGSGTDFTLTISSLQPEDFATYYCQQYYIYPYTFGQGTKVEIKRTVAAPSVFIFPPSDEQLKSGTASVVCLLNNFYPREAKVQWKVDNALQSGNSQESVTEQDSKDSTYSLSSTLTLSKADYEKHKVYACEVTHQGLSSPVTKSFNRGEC
heavy: B1 heavy
chain: B2 chain with G32S, E52S, S62N, Y103D, D106A, H172Y, S238T
notes: anti-HER2 Fab x CD28 scFv BC8233 (VH-VL)-Fc
B6: TY29315 (bispecific antibody, human IgG1, kappa, N297A)
light: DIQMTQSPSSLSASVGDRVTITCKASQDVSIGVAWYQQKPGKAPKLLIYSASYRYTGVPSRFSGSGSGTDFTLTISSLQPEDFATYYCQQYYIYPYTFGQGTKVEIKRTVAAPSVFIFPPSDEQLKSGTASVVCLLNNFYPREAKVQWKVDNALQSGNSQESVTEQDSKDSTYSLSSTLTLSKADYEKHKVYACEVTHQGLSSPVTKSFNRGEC
heavy: B1 heavy
chain: B2 chain with E52S, Y103D, D106A, H172Y, Q199E, S238T, R240L
notes: anti-HER2 Fab x CD28 scFv BC8263 (VH-VL)-Fc
B7: TY29308 (bispecific antibody, human IgG1, kappa, N297A)
light: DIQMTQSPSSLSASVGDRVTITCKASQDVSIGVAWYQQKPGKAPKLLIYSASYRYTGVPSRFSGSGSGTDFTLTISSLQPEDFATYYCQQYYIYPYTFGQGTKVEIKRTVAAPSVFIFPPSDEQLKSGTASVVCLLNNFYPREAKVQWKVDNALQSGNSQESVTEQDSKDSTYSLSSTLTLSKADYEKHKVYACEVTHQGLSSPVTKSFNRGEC
heavy: B1 heavy
chain: B2 chain with G32S, E52S, S62N, Y103G, D106A, H172Y, I174K, S238T, R240L
notes: anti-HER2 Fab x CD28 scFv BC8230 (VH-VL)-Fc
B8: TY29307 (bispecific antibody, human IgG1, kappa, N297A)
light: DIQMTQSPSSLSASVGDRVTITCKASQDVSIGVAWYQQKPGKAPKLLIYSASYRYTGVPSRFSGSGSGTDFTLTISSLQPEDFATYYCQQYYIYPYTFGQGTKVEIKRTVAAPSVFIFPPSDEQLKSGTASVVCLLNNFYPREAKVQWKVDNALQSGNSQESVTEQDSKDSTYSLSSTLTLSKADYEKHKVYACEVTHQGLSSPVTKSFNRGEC
heavy: B1 heavy
chain: B2 chain with E52S, S62N, Y103G, D106A, F107L, H172Y, S238T, R240P
notes: anti-HER2 Fab x CD28 scFv BC8228 (VH-VL)-Fc
B9: TY28660 (bispecific antibody, human IgG1, kappa, N297A)
light: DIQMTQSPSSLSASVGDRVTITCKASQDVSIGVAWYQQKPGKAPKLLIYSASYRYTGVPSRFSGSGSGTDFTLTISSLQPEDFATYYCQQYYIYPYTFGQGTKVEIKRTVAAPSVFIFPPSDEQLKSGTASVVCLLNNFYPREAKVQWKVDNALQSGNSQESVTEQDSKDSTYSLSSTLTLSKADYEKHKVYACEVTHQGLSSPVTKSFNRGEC
heavy: B1 heavy
chain: B1 chain with Y32H, I34K, T98S, S183E, N193S, D234Y, Y235S
notes: anti-HER2 Fab x CD28 scFv BC8257 (VL-VH)-Fc
B10: TY28658 (bispecific antibody, human IgG1, kappa, N297A)
light: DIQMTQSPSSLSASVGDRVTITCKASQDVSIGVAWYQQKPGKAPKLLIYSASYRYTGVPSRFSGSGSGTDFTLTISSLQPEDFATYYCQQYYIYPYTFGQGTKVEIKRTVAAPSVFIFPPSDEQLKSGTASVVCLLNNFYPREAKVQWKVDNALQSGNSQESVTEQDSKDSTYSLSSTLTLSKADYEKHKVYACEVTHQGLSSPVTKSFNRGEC
heavy: B1 heavy
chain: B1 chain with I34K, Q59E, T98S, R100L, S168G, A237D
notes: anti-HER2 Fab x CD28 scFv BC8240 (VL-VH)-Fc
B11: TY28656 (bispecific antibody, human IgG1, kappa, N297A)
light: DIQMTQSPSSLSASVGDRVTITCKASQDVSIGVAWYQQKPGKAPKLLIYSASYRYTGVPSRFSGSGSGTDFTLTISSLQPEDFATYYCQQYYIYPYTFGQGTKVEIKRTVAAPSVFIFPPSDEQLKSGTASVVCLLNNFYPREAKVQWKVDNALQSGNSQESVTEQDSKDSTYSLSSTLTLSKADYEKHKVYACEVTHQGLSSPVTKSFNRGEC
heavy: B1 heavy
chain: B1 chain with I34K, S168G, S183E, Y191N, D234G, F238L
notes: anti-HER2 Fab x CD28 scFv BC8235 (VL-VH)-Fc
B12: TY28659 (bispecific antibody, human IgG1, kappa, N297A)
light: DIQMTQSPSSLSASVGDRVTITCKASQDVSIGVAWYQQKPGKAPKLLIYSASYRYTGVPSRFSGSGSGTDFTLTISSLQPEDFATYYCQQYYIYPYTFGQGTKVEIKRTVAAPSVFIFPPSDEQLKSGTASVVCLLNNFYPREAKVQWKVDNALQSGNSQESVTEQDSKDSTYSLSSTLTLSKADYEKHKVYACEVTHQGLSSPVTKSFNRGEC
heavy: B1 heavy
chain: B1 chain with Y32H, T98S, S183E, D234G
notes: anti-HER2 Fab x CD28 scFv BC8242 (VL-VH)-Fc
B13: TY29311 (bispecific antibody, human IgG1, kappa, N297A)
light: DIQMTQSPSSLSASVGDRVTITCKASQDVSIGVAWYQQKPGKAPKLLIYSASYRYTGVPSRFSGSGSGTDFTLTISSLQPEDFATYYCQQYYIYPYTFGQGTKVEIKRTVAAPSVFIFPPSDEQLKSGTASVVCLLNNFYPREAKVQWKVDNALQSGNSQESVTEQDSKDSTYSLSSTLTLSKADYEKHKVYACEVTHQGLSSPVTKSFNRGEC
heavy: B1 heavy
chain: B2 chain with S37G, S62N, Y103G, D106A, Q199E, S238T
notes: anti-HER2 Fab x CD28 scFv BC8237 (VH-VL)-Fc
B14: TY29306 (bispecific antibody, human IgG1, kappa, N297A)
light: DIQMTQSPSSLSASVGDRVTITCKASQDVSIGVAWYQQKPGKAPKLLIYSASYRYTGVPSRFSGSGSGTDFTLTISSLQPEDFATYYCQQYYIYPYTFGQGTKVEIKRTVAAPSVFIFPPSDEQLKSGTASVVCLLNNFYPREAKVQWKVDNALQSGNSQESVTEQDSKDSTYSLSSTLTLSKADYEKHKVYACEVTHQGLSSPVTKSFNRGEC
heavy: B1 heavy
chain: B2 chain with E52S, S62N, Y103D, D106A, H172Y, I174K, Q199E, R240P
notes: anti-HER2 Fab x CD28 scFv BC8227 (VH-VL)-Fc
B15: TY29313 (bispecific antibody, human IgG1, kappa, N297A)
light: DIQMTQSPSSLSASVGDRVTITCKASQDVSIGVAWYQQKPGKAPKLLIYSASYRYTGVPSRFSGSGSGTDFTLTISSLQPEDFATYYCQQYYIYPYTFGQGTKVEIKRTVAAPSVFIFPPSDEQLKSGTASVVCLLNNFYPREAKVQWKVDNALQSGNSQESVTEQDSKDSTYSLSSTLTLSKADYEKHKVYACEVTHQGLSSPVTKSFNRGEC
heavy: B1 heavy
chain: B2 chain with G32S, S62N, Y103G, D106A
notes: anti-HER2 Fab x CD28 scFv BC8242 (VH-VL)-Fc
B16: TY28661 (bispecific antibody, human IgG1, kappa, N297A)
light: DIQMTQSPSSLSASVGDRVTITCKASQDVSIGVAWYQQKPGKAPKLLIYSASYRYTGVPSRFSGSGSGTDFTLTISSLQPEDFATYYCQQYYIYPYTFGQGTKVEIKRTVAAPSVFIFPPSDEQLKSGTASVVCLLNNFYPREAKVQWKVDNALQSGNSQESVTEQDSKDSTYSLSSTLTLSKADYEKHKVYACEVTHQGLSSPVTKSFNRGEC
heavy: B1 heavy
chain: B1 chain with Q59E, R100L, S163G, N193S
notes: anti-HER2 Fab x CD28 scFv BC8263 (VL-VH)-Fc
B17: TY29312 (bispecific antibody, human IgG1, kappa, N297A)
light: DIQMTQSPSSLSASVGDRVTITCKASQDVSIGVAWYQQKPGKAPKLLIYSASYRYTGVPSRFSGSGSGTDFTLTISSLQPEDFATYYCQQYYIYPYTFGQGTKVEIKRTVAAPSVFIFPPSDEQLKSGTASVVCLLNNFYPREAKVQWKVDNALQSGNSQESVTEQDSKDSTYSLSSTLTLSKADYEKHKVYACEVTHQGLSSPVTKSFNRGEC
heavy: B1 heavy
chain: B2 chain with G32S, S37G, E52S, S62N, Y103D, H172Y, I174K, Q199E, R240L
notes: anti-HER2 Fab x CD28 scFv BC8240 (VH-VL)-Fc
B18: TY29314 (bispecific antibody, human IgG1, kappa, N297A)
light: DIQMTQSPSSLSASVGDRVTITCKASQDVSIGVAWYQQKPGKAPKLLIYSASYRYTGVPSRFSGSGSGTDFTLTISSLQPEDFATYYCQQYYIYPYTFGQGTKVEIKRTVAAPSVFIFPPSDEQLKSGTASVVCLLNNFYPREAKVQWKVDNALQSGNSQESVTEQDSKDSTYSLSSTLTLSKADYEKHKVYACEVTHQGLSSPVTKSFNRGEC
heavy: B1 heavy
chain: B2 chain with G32S, Y104S, D106A, I174K
notes: anti-HER2 Fab x CD28 scFv BC8257 (VH-VL)-Fc
B19: TY24881 (antibody, human IgG4 S228P, kappa, V domains shown)
VH: QVQLVQSGAEVKKPGSSVKVSCKASGFSLSTGGVGVTWIRQAPGQGLEWIGSIYHSGSTYYSPSLKSRVTITADKSTSTAYMELSSLRSEDTAVYYCARYDYGYYSFDVWGQGTLVTVSS
VL: DIQLTQSPSSLSASVGDRVTITCRASQSVDFDAFSFLAWYQQKPGKAPKLLIYAASTLQSGVPSRFSGSGSGTDFTLTISSLQPEDFATYYCQQSYSASTFGQGTKVEIKR
notes: hIgG4/S241P
B20: TY24854 (antibody, human IgG4 S228P, kappa, V domains shown)
VH: EVQLVESGGGLVQPGGSLRLSCAASGYSITSGYHWGWIRQAPGKGLEWIGEIYHSGSTYYSPSLKSRVTISRDNSKNTLYLQLNSLRAEDTAVYYCARRRGDGYFDFWGQGTLVTVSS
VL: DIQLTQSPSSLSASVGDRVTITCRASQSVDFLGISFLHWYQQKPGKAPKLLIYDASNRATGIPSRFSGSGSGTDFTLTISSLQPEDFATYYCQQSYRTPLTFGQGTKVEIKR
notes: hIgG4/S241P
B21: TY24871 (antibody, human IgG4 S228P, kappa, V domains shown)
VH: QVQLVQSGAEVKKPGSSVKVSCKASGFTFSSYAIHWVRQAPGQGLEWIGSIYHSGSTYYSPSLKSRVTITADKSTSTAYMELSSLRSEDTAVYYCARDVYGSYALDVWGQGTLVTVSS
VL: B20 VL with L32D, N57S, R58L, A59E, T60S, I62V, T98S, L100I
notes: hIgG4/S241P

Target: Human CD28 (ELISAs of Examples 4 and 13) (human, UniProt P10747 19-152, limits assumed)
Assay: ELISA

| Binder | EC50 |
| --- | --- |
| B1 | 8.14 nM |
| B2 | 30.3 nM |
| B3 | 5.29 nM |
| B4 | 349 nM |
| B5 | 27.7 nM |
| B6 | 291 nM |
| B7 | 417 nM |
| B8 | 27.8 nM |
| B9 | 3.77 nM |
| B10 | 78 nM |
| B11 | 128 nM |
| B12 | 0.954 nM |
| B13 | 91.3 nM |
| B14 | 9.27 nM |
| B15 | 6.97 nM |
| B16 | 52.6 nM |
| B17 | 624 nM |
| B18 | 27.5 nM |

Target: T1, His-tagged human CD28 protein (human, UniProt P10747 19-152)
T1 construct: not shown: His tag
Assay: Octet BLI, mAb captured;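 further: Anti-human Fc biosensors captured the antibodies, then His-tagged protein analytes at 100 nM associated for 300 s and dissociated for 300 s, fitted by a 1:1 Langmuir model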

| Binder | Kd | koff | kon |
| --- | --- | --- | --- |
| B19 | 5.25 nM | 0.000662 s⁻¹ | 126000 M⁻¹ s⁻¹ |
| B20 | 5.43 nM | 0.000353 s⁻¹ | 64900 M⁻¹ s⁻¹ |
| B21 | 4.99 nM | 0.00035 s⁻¹ | 70100 M⁻¹ s⁻¹ |

Target: T2, His-tagged human CTLA4 protein (human, UniProt P16410 36-161, limits assumed)
T2 construct: not shown: His tag
T2 sequence (P16410 36-161 limits assumed): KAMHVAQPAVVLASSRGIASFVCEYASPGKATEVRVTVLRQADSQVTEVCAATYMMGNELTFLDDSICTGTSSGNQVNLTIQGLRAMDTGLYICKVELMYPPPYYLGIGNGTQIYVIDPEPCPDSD
Assay: Octet BLI, mAb captured;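 further: Anti-human Fc biosensors captured the antibodies, then His-tagged protein analytes at 100 nM associated for 300 s and dissociated for 300 s, fitted by a 1:1 Langmuir model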

| Binder | Kd | koff | kon |
| --- | --- | --- | --- |
| B19 | 2.35 nM | 0.00262 s⁻¹ | 1.11e+06 M⁻¹ s⁻¹ |

Target: T3, Human CD28 on cells (human, UniProt P10747 19-220)
T3 construct: Jurkat E6-1 cells, primary human T cells, or transfected HEK293F cells; also called CD28 on Jurkat cells; CD28 on human CD3+ T cells
Assay: flow cytometry, Jurkat cells
Procedure: Next, the cells were washed twice with DPBS and further incubated with a APC-anti-human IgG Fc secondary antibody (1 μg/mL, 100 μL/well, Biolegend) for 30 minutes at 4° C. Finally, the cells were washed twice with DPBS and suspended in FACS buffer for flow cytometry analysis. For analysis, the Mean Fluorescence Intensity (MFI) values versus concentrations were plotted using FlowJo 10 software (FlowJo LLC) and the data were further fitted with four-parameter non-linear regression to obtain EC₅₀ values by GraphPad Prism version 7 for Windows, GraphPad Software, La Jolla California USA, www.graphpad.com.

| Binder | EC50 |
| --- | --- |
| B19 | 0.38 nM |
| B20 | 0.6 nM |
| B21 | 0.89 nM |
